Measurements from publication PMC7736808, “Dual conformational recognition by Z-DNA binding protein is important for the B–Z transition process”.

Experiments:
vvZαE3L = vvZαE3L (UniProt P21605); assay: MST; 20 mM NaCl; text says 20 uM; MST at 22 C, 5 nM labeled DNA, 0.5 mg/ml BSA, 0.05% Tween 20; 5 mM HEPES pH 7.5, 20 mM NaCl (Table 2); 20 mM HEPES pH 8.0, 100 mM NaCl (Table 4); 20 mM Tris-HCl pH 7.8, 150 mM KCl (Table 5); conditions: protein: recombinant; label: 5'-Alexa647 on strand 1; blunt
GH5*:α3NADAR1-PW [1] = biological target: T1, GH5*:α3NADAR1-PW (/ human ADAR1 α3N and β-wing residues, UniProt P02259, K41G;S42G;R43G;K53A;R95A;del65;D66K;L67K;Q68E;K70N;L71R;S72V;I73L;R74Y;R75S;S91P …); assay: MST; 150 mM KCl, pH 7.8; MST at 22 C, 5 nM labeled DNA, 0.5 mg/ml BSA, 0.05% Tween 20; 5 mM HEPES pH 7.5, 20 mM NaCl (Table 2); 20 mM HEPES pH 8.0, 100 mM NaCl (Table 4); 20 mM Tris-HCl pH 7.8, 150 mM KCl (Table 5); conditions: protein: recombinant; chain copies: 2; label: 5'-Alexa647 on strand 1; blunt
T1 sequence: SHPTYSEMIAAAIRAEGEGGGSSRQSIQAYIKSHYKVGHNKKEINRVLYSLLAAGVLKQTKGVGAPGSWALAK

GH5* = biological target: T2, GH5* (UniProt P02259, K41G;S42G;R43G;K53A;R95A); assay: as above; conditions: protein: recombinant; label: 5'-Alexa647 on strand 1; blunt
T2 sequence: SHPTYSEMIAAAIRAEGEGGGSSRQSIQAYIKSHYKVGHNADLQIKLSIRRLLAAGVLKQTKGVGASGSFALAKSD

hZαADAR1 = biological target: T3, hZαADAR1 (human, UniProt P55265); assay: MST; 20 mM NaCl; text says 1.8 uM; MST at 22 C, 5 nM labeled DNA, 0.5 mg/ml BSA, 0.05% Tween 20; 5 mM HEPES pH 7.5, 20 mM NaCl (Table 2); 20 mM HEPES pH 8.0, 100 mM NaCl (Table 4); 20 mM Tris-HCl pH 7.8, 150 mM KCl (Table 5); conditions: protein: recombinant; tags: N-terminal His6, cleaved by thrombin; chain copies: 2; label: 5'-Alexa647 on strand 1; blunt
T3 sequence: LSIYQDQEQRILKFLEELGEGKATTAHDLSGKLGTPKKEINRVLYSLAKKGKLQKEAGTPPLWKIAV

GH5*:α3NADAR1-PW [2] = biological target: T1, GH5*:α3NADAR1-PW; assay: MST; 100 mM NaCl, pH 8.0; MST at 22 C, 5 nM labeled DNA, 0.5 mg/ml BSA, 0.05% Tween 20; 5 mM HEPES pH 7.5, 20 mM NaCl (Table 2); 20 mM HEPES pH 8.0, 100 mM NaCl (Table 4); 20 mM Tris-HCl pH 7.8, 150 mM KCl (Table 5); conditions: protein: recombinant; chain copies: 2; label: 5'-Alexa647 on strand 1; blunt

B1: B-DNA 21 bp (dsDNA)
DNA 1: TATGCAATCGTAATAAACCGT
DNA 2: ACGGTTTATTACGATTGCATA
**Q.** For B1, which Kd (vvZαE3L) is on record?
**A.** 21 ± 0.5 µM

**Q.** What about the Kd (GH5*:α3NADAR1-PW [1]) of the same binder?
**A.** 144 ± 16 µM

**Q.** And the Kd (GH5*)?
**A.** 167 ± 50 µM

**Q.** And the Kd (hZαADAR1)?
**A.** 2.7 ± 0.5 µM

**Q.** And the Kd (GH5*:α3NADAR1-PW [2])?
**A.** 31 ± 2 µM
